Ends that are not written are not given here.

One assay addresses His-MBTD1 (UniProt Q05BQ5 1-628). Kind of assay: ITC.
Assay [1] deals with MBTD1(140-562)-(GSA)6-EPC1(644-672) fusion protein (UniProt Q05BQ5 140-562; Q9H2F5 644-672). The assay can be described thus: ITC. In general terms: In ITC the heat of successive injections is recorded.

His-MBTD1, sequence (Q05BQ5 whole entry, the tested form may be a part): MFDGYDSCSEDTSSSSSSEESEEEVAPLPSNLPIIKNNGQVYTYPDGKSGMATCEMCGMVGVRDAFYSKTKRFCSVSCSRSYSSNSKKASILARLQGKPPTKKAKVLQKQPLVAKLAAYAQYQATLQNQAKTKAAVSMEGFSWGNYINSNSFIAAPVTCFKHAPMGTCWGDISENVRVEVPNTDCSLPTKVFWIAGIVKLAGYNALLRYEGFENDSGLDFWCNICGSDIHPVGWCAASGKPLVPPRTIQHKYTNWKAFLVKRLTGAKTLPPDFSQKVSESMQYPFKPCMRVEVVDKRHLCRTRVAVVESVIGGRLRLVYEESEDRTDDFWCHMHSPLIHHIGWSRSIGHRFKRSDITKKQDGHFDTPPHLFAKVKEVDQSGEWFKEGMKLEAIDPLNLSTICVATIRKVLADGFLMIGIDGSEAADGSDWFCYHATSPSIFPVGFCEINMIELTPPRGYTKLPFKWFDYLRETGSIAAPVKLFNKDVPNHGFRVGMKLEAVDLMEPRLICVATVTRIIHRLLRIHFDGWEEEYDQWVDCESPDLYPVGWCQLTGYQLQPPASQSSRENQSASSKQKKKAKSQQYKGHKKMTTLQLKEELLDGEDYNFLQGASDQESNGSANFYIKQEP

By Kd is commonly meant the concentration at which binding is half-saturated. Lower therefore signals a tighter complex. As usually defined, the stoichiometry N is the number of molecules, sites or subunits per partner or assembly. QGFVSKTLDSASAQFAASALVTSEQLMGF (domain or fragment, UniProt Q9H2F5 644-672, looked up) [GST-EPC1(644-672)]: in the assay with His-MBTD1, the Kd was about 67 nM and the “stoichiometry N” value is about 1.3. With AKRHRK(Me)VLRDN [H4K20me1 peptide], the binding result in assay [1] is on record as “binds”.
